Measurements as given in the supplement of paper PMC9170038.

Tested on: MS2 coat protein
Assay: apparent KD of MS2 coat protein; designed switch direction (-1 OFF switch, 1 ON switch): -1; higher = weaker reporter binding
In short: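 An oligonucleotide input, 200 uM small-molecule ligand, or no input was present during titration of SNAP-549-labelled MS2 coat protein, which was doubled from 0.7 or 1.5 nM to 3 µM. Designed RNA switches had been transcribed on Illumina chips by stalled E. coli RNA polymerase. Apparent KD per design is the median over clusters of curves fitted to normalised cluster fluorescence.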

[1] = input ligand: microRNA oligo, concentration not stated
[2] = Eterna round: R95, input ligand: FMN 200 uM
[3] = Eterna round: R95, input ligand: microRNA oligo, concentration not stated
[4] = Eterna round: R95, input ligand: none

| Sequence | apparent KD of MS2 coat protein (input ligand: FMN 200 uM) | apparent KD of MS2 coat protein (input ligand: none) | apparent KD of MS2 coat protein [1] | apparent KD of MS2 coat protein [2] | apparent KD of MS2 coat protein [3] | apparent KD of MS2 coat protein [4] |
| --- | --- | --- | --- | --- | --- | --- |
| UAUUAGCAAGUAAGAUCCCACAUGAGGAUCACCCAUGUGCUCGUCUUAUAAGGUACUGUGACGAAAGUCACGGUACC [Sensor 3, v1 - 95 v1] (Eterna round: R97, puzzle: Sensor, turn-off variant 1) | 18.3 nM | 19.2 nM |  |  |  |  |
| GUCAGGAAUGUAGGAUAUCUGCACGUUUAGUGCAGAGAAGGACAUGAGGAUCACCCAUGUAUAGUAGCUUCGGCUACACCUGAC [ENG1-A2] (Eterna round: R96, puzzle: Exclusion NG 1) | 19.3 nM | 15.9 nM | 12.5 nM |  |  |  |
| CAGACGGCCGUAGGAUAUGCAGCAAAGACGUGAGCAGAAGGACGAUACAUGAGGAUCACCCAUGUACGUGGGUAGUGCGCAUGC [Veustean] (Eterna round: R96, puzzle: Exclusion NG 1) | 19.8 nM | 20.8 nM | 14.4 nM |  |  |  |
| GAUUAUGCGAGCUUUAGGGACAUGAGGAUCACCCAUGUUCGUCUUAUUGAUCUAGGUACGCUGACGUACCUAAAUCU [Mod of one of jandersonlee's solutions] (puzzle: Sensor v3, turn-off variant 1) |  |  |  | 20.5 nM | 35.2 nM | 23.4 nM |
| GGCCUUCCACAAGCUUUUUACAUGAGGAUCACCCAUGUGGUUUUUAGUCUUAUCCCGGGCCCGAUGUCGGGCCCGGG [-33.4, -54.7, A 16%] (Eterna round: R97, puzzle: Sensor, turn-off variant 1) | 27.4 nM | 28.4 nM |  |  |  |  |
| GGGCCUUUGGUCAGGAUAUCUUAUUCCAGACUAUAGGAGAAGGGACUUGAGGAUCACCCAAGUAAAAUGAAAAC [Dizadi] (Eterna round: R97, puzzle: Brourd's mod of Exclusion 4) | 23.3 nM | 24 nM |  |  |  |  |
| AAAAGGCUAGGAUAUACAUGAGGAUCACCCAUGUGUACUGGACAUGCGGUAUGCGUAUGUAGAAGGAGUAUAAA [Inaisor] (puzzle: Exclusion 3) |  |  |  |  | 14.2 nM |  |
| AACAAGCUAGGAUAUACAUGAGGAUCACCCAUGUGCGACUGAUGUCCCGUGGUUGAGGGUAGAAGGAGCGAAAG [Qucelexe] (puzzle: Exclusion 3) |  |  |  | 239 nM | 210 nM | 226 nM |
| AACUGUCUAAAGGAUAUGCUGGAUUAAUAUCUGGCAGAAGGUUAGACAUGAGGAUCACCCAUGUAAAUACCACC [Omei Ex6 A10] (Eterna round: R97, puzzle: Exclusion 6) | 106 nM | 19.5 nM |  |  |  |  |
| UUAAUGUGAGGAUAUCAGGUGUGCUAGCGUACUGGUACAUCUGAGAAGGCACAUGAGGAUCACCCAUGUUCCUG [JL-ex4-3.28 Brourd mod] (puzzle: Exclusion 4) |  |  |  |  | 20.6 nM |  |
| ACGCAACAUGAGGAUCACCCAUGUCAGGAUAUCCGGCGAAAACCCAAGAAGGGAAACCGGAGAAGGGACAAAGG [ChP 04-04-2015 #1] (puzzle: Exclusion 1) |  |  |  | 134 nM | 181 nM | 189 nM |
| AAUAACAGAGGAUAUACUGUUUUAUGUGUUUGUUAUUUUGAACAUGAGGAUCACCCAUGUAGAAGGCUGAAUAA [JMF 23] (puzzle: Exclusion 2) |  |  |  |  | 21.3 nM |  |
| CCGGUGUGAGGAUAUCCAUCUGGAUCAGACUAGAUCCUGAUGGAGAAGGCACAUGAGGAUCACCCAUGUUACGG [Eli 4x 4.42] (Eterna round: R97, puzzle: Exclusion 4) | 567 nM | 656 nM |  |  |  |  |
| CCACCUCACGUCAGGAUAUCCAUCUCGAGUGAGGAGGAGAAGGGACAUGAGGAUCACCCAUGUAUAGAAAGAAA [Veaonce] (Eterna round: R97, puzzle: Brourd's mod of Exclusion 4) | 35.1 nM | 22.1 nM |  |  |  |  |
| UUUAAAACAUAGGAUAUCGAAUAAAUCAUUUAACGAGAAGGAUGAACAUGAGGAUCACCCAUGUGGUAUCAUGG [Mat - Exclusion 6 - JL Mod - D20] (puzzle: Exclusion 6) |  |  |  | 219 nM | 183 nM | 207 nM |
| GGUUAUUGCAAGGAUAUGCUUUUUUUUGAUAUUGCAGAAGGUGCAACAUGAGGAUCACCCAUGUUGGAGGGAUU [JR_E6_Sub020] (puzzle: Exclusion 6) |  |  |  |  | 32.7 nM |  |
| UUUUGGCAUGUAGGAUAUGGGUCCGAUUAGGAUUUAGAAGGACAUGAGGAUCACCCAUGUGCAUUUAAUUGGUCUUUACCUUUU [EXclNG1-LROPPY12] (Eterna round: R96, puzzle: Exclusion NG 1) | 130 nM | 82.5 nM | 82.1 nM |  |  |  |
| AGACAGUGAGGAUAUGCAGUCGGUGUCACCUGAUGAGAAGAACAUGAGGAUCACCCAUGUAGAAGGCACAGGAA [Tearrice] (puzzle: Exclusion 2) |  |  |  |  | 40.6 nM |  |

| Sequence | apparent KD of MS2 coat protein (input ligand: FMN 200 uM) | apparent KD of MS2 coat protein (input ligand: none) | apparent KD of MS2 coat protein [1] | apparent KD of MS2 coat protein [2] | apparent KD of MS2 coat protein [3] | apparent KD of MS2 coat protein [4] |
| --- | --- | --- | --- | --- | --- | --- |
| GUGCAGCGAGGAUAUACAGACGGGUCCAGUACGUGUCUUGGACUUGAGGAUCACCCAAGUAGAAGGCGUCUCAG [salish99_ex2_r4_609] (Eterna round: R97, puzzle: Exclusion 2) | 35.4 nM | 36.8 nM |  |  |  |  |
| AGGUCCUUCUGGAGACAUGAGGAUCACCCAUGUCGAGUCAGCGAGGAUAUCGGUUAAUAAUGUGACGAGAAGGCGCGGACCGAU [Ex NG3 #55] (Eterna round: R96, puzzle: Exclusion NG 3) | 45.1 nM | 13 nM | 9.82 nM |  |  |  |
| UUUUUAUAUGAAGGAUAUACUUAACAUGAGGAUCACCCAUGUGGUGUUGUGAGUGAGUGAGUUUAGUAGAAGGUCAAGAAUUUU [JMF's solution 34] (Eterna round: R96, puzzle: Exclusion NG 2) | 521 nM | 324 nM | 399 nM |  |  |  |
| UUACGACAUGAGGAUCACCCAUGUUAGGAUAUGUGGCGAGAGCGCUAGCCUCGGGCCAACAGAAGGAAUAGGGC [Eternabot (L2) Solution 35] (Eterna round: R97, puzzle: Exclusion 1) | 53.4 nM | 58.5 nM |  |  |  |  |
| ACUUGUCAUGAGGAUAUGCGACGCAACGGUGGAGCAGAAGGCGUGACAUGAGGAUCACCCAUGUCAGUUCGCGA [eternacac ex6r4 sub32] (Eterna round: R97, puzzle: Exclusion 6) | 43.4 nM | 16.1 nM |  |  |  |  |
| CAGGACAGAGGAUAUACAUAGAUACAGAUUCAUGUAGAACUACAUGAGGAUCACCCAUGUAGAAGGCUGUCCUG [Fiskers Ex 2 - 3] (puzzle: Exclusion 2) |  |  |  |  | 27.8 nM |  |
| CAUUUGUGAGGAUAUCAGGUGUGCUAGCGUACUGGUACAUCUGAGAAGGCACAUGAGGAUCACCCAUGUUUCUU [Mat - Exclusion 4 - Mod of JL - D37] (puzzle: Exclusion 4) |  |  |  |  | 15.9 nM |  |
| AUUGUGUUAGGAUAUGCUUAUGGUGGGUAGUCCAGUAUGAAGUAGAAGGGACAUGAGGAUCACCCAUGUGCUGA [EX4 #36] (Eterna round: R97, puzzle: Exclusion 4) | 136 nM | 164 nM |  |  |  |  |
| GGCACACAUGAGGAUCACCCAUGUGAGGAUAUUAGGCGAUCGUCGAUAGACGAUAGCCUGAGAAGGCACAUGCC [Mat - Exclusion 1 - Eli Mod - D12] (Eterna round: R97, puzzle: Exclusion 1) | 76.9 nM | 20.6 nM |  |  |  |  |
| GAUAGAGAGCAGGAUAUCUUGGGUAAGUAUCGUAGAGAAGGGCUCACAUGAGGAUCACCCAUGUGGUCCAAGAU [JL Dibiri mod 01] (puzzle: Exclusion 6) |  |  |  |  | 14.4 nM |  |
| AGUACUAACACGAAUGUGUUAGUACAAUAAGCUUGUGAAACAUGAGGAUCACCCAUGUCCUCAUAAGCUCGUCUUAU [salish99_TOv2_r3_032] (puzzle: Sensor v3, turn-off variant 2) |  |  |  | 16.3 nM | 779 nM | 15.5 nM |
| ACAUGAGGAUCACCCAUGUGACCACGAUGGCUGAUGUAGACCUAGGAUAUGAGUGAAUAUCUAUCUCAGAAGGAGGUUGACUGG [Deportation 50 - Jieux - Exclusion NG 3] (Eterna round: R96, puzzle: Exclusion NG 3) | 46.7 nM | 61.2 nM | 52.1 nM |  |  |  |
| CUGAGGUAGCGGUCCUAUGACAUGAGGAUCACCCAUGUACCUUGCUACGAGCUUUUUGCUCGUCUUAUGAUUCUCGG [JL Atriat mod 4] (puzzle: Sensor v3, turn-off variant 1) |  |  |  | 166 nM | 93.9 nM | 250 nM |
| GAAUAGGCAGGAUAUACAUGAGGAUCACCCAUGUGCUUGCGCUAGGCACGUGAACAACGUAGAAGGGCCUAGAC [ChP 13.04.2015 #11] (puzzle: Exclusion 3) |  |  |  |  | 12.1 nM |  |
| GAGAAACAUGAGGAUCACCCAUGUGAGGAUAUGAAAAAGAAAAGAAAAGAAAGAAGAAUCAGAAGGCACAAAGA [salish99-ex1_r3_084] (puzzle: Exclusion 1) |  |  |  | 28.1 nM | 27.9 nM | 38.9 nM |
| AACAGUCUAGAGGAUAUGCUGGAUUAAUAUCUGGCAGAAGGCUGGACAUGAGGAUCACCCAUGUAAAUACUACC [Omei Ex6 A1] (Eterna round: R97, puzzle: Exclusion 6) | 137 nM | 44.3 nM |  |  |  |  |
| UACAUGAGGAUCACCCAUGUUUUGUCGUGUAUGGUAUUUAUCUAGGAUAUCAAUGUAUUUAGUUAUGAGAAGGAGAAUAUUAAU [JMF's solution 46] (Eterna round: R96, puzzle: Exclusion NG 3) | 38.1 nM | 35.3 nM | 32 nM |  |  |  |
